Results: patent US20240101645A1 (HENRY M JACKSON FOUNDATION FOR THE ADVANCEMENT OF MILITARY …, published 2024)

T1: HCoV-OC43 spike antigens (bead panel) (HCoV-OC43, UniProt P36334 14-1297)
T1 sequence: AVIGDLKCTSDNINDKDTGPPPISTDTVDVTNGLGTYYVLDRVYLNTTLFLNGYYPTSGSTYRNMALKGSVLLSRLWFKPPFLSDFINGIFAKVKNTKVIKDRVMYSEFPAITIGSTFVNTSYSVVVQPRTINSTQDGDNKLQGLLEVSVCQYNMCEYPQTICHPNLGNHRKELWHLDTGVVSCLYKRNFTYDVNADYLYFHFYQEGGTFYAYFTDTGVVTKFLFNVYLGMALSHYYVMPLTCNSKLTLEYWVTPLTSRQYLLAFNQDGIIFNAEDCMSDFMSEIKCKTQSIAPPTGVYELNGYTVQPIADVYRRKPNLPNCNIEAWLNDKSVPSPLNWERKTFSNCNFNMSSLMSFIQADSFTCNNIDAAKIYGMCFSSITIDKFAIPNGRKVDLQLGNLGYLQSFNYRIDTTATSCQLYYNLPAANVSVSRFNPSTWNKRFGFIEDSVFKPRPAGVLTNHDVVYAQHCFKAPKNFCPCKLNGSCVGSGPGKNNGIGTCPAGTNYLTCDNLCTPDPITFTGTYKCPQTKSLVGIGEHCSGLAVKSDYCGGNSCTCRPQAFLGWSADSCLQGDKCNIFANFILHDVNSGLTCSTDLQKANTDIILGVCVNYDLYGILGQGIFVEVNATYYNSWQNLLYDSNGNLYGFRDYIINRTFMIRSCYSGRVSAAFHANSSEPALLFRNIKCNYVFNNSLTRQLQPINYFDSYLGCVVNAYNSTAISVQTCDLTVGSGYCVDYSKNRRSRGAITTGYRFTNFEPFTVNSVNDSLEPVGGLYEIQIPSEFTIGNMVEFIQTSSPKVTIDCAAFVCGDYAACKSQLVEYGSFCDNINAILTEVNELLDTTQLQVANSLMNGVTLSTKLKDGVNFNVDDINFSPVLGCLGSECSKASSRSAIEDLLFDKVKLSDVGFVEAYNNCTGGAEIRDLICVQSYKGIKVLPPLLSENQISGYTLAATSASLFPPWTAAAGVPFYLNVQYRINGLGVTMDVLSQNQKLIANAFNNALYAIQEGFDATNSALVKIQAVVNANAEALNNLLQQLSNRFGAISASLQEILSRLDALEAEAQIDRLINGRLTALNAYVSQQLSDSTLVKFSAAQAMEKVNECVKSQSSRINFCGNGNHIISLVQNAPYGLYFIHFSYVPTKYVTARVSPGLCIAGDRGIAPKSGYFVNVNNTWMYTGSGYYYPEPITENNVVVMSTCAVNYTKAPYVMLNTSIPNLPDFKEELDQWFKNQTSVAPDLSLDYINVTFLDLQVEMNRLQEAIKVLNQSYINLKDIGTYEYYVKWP

T2: HCoV-229E spike antigens (bead panel) (HCoV-229E, UniProt P15423 16-1115)
T2 sequence: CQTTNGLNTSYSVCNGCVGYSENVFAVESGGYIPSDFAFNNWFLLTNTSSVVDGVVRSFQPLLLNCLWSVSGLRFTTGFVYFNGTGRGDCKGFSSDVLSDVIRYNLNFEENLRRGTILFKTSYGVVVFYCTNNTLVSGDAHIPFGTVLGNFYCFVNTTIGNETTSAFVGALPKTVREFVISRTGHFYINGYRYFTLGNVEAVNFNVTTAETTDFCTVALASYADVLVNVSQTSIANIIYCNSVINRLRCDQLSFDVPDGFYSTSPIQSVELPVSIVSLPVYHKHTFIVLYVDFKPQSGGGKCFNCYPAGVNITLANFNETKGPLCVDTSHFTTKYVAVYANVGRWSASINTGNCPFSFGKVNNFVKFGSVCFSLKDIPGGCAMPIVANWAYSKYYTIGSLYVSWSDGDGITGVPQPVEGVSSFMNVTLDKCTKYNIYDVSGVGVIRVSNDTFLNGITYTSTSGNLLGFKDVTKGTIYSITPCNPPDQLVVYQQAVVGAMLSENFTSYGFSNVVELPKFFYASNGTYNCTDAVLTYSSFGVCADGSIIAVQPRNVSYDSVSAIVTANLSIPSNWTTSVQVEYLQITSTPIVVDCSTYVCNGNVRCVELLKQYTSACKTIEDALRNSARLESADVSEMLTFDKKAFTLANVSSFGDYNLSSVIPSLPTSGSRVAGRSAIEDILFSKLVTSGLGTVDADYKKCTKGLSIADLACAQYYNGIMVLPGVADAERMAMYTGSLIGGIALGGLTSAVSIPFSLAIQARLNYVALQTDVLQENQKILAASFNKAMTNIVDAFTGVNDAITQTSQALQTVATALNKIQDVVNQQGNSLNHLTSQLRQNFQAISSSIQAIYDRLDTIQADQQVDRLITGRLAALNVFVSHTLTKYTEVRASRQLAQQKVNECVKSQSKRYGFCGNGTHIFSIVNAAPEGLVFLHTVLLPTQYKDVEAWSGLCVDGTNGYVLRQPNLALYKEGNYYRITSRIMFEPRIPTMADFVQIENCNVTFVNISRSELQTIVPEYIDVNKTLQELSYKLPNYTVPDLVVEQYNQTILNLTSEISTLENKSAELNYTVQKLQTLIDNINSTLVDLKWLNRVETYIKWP


Key:
[1] = target: SARS-CoV-2 S on pseudovirions (Wuhan Hu-1 / IL1/2020, last 18 amino acids removed) (SARS-CoV-2, UniProt P0DTC2 14-1273); assay: cell-based or functional assay
[2] = target: T1, HCoV-OC43 spike antigens (bead panel); assay: multiplex bead assay
[3] = target: T2, HCoV-229E spike antigens (bead panel); assay: multiplex bead assay

Binder	Mean IC50, pSV neutralization [1]	Mean IC80, pSV neutralization [1]	binding result [2]	binding result [3]
COV_2151 (antibody, V domains shown, human IgG1) VH: QVQLQESGPRLVKPSETLSLTCTVSGGSISGSNYFWGWIRQPPGKGLEWIGTIYYGGSTYYNPSLKSRVTISVDTSENQFSLKLSSVTAADTAVYYCANLAWLRGYFDYWGQGTLVTVSS VL: NFMLTQPHSVSESPGKTVTISCTRSSGSIASNYVQWYQQRPGSAPTTVIYEDNQRPSGVPDRFSGSIDSSSNSVSLTISGLKTEDEADYYCQSYDSSNWVFGGGTKLTVL	0.12 µg/ml	1.21 µg/ml	no binding	–
COV_1060 (antibody, V domains shown) VH: EVQLVQSGAEVKKPGESLKISCKSSGYTFTSFWIAWVRQLPGKGLEWMGIIYPGDSDTKYSPSFQGQVTISADKSISTAYLQWSSLKASDTAMYYCARLRGSCSNGVCYAYYYNAMDVWGPGTTVTVSS VL: QSALTQPASVSGSPGQSITISCTGTSSDIGRYNYVSWYQHHPGKAPKLMIYEVSNRPSGVSNRFSGSKSGNTASLTISGLQAEDEADYYCTSYTSGSTLGFGGGTKVTVLG	≥ 25 µg/ml	≥ 25 µg/ml	–	–
COV_2024 (antibody, V domains shown, human IgG1) VH: QVQLVQSGAEVRKPGSSVKVSCKASGGTFSTYAISWVRQAPGQGLEWMGGIIPMFGTTNYAQKFQGRVTITADESTRTAYMELSSLRSEDTAVYYCARDGGYDSWPDFDYWGQGTLVTVSS VL: EIVLTQSPATLSLSPGERATLSCRASQSISSFLAWYQQKPGQAPRLLIYDASNRATGIPARFSGSGSGTDFTLTVSSLEPEDFAVYYCHQRRNWPPIKTFGQGTKVDIK	9.59 µg/ml	≥ 25 µg/ml	no binding	–
COV_1056 (antibody, V domains shown) VH: QVQLVESGGGVVQPGTSLRLSCEASGFTFSAYGMHWVRQAPGKGLEWVAISRNDGTTKYYADSVKGRLTISRDNSKNTLYLQMNSLTSEDTAVYYCANQCGGGCSVDSWGQGTLVTVSS VL: QAVVTQEASLTVSPGGTVTLTCGSSTGSVTSGHAPYWFQQKPGQAPRTLIFDTTHKHSWTPARFSGSLLGGKAALTLSGAQPEDEAEYYCLLSFGGAHVFGTGTKVTVLG	≥ 25 µg/ml	≥ 25 µg/ml	–	–
COV_3040 (antibody, V domains shown) VH: QVQLVESGGGLVQPGRSLRLSCTTSGFNFGDNSMSWVRQAPGKGLEWIGFISNKAHGGTTDYAASVKGRFTISRDDSKSIAYLQMNSLKAEDTAIYYCTKDSYGHFPSYGFDIWGQGTMVTVSS VL: DVVMTQTPLSLSVTPGQPASISCKSTQSLVHTDGKTYFYWFLQKPGQPPQLLIYDVSSRFSGVPDRFSGSGSATDFTLRISRVEAEDVGVYYCMHSINFPRTFGQGTKVEIT	≥ 25 µg/ml	≥ 25 µg/ml	–	–
COV_3043 (antibody, V domains shown) VH: EVQVVESGGGLVQPGRSLRLSCTASGFNFGDNSMSWVRQAPGKGLEWVGFISNRDHSGTTDYAASVKGRFTISRDDSKSIAYLQMNSLKTEDTAIYYCIRDSYGHFPNYGFDVWGQGTMVTVSS VL: DVVMTQTPLSLSVTPGQPASISCKCSQSLIHSDGKTYQYWFLQRPGQPPQLLIYDVSNRVSGVPDRFSGSGSGTDFTLKISRVEAEDVGVYYCMHSINFPRTFGQGTKVEIT	≥ 25 µg/ml	≥ 25 µg/ml	–	–
COV_2056 (SEQ ID NO:432/437) (antibody, V domains shown) VH: EVQLVESGGGVVQPGRSLRLSCAASGFTFSIYGMHWVRQAPGKGLEWVALISYDGTNKYYADSVKGRFSISRDDSKNTLYLQMNSLRPEDTAVYYCAKVLMMGDSSGFSLGDAFDIWGQGTMVTVSS VL: DIQMTQSPSSVSASVGDRVTITCRASQGISNWLAWYQQKPGKAPKLLIYAASSLQSGVPSRFSGSVSGTDFTLTISSLQPEDFATYYCQQANSFPLTFGGGTKVDIK	13.2 µg/ml	≥ 25 µg/ml	no binding	–
COV_3033 (antibody, V domains shown) VH: EVQMVESGGGFVQPGQSPRLSCLVSGLNFADYAFCWVRQAPGKGPEWIGFISSKLHGGTTHYAASVEGRFIISRDDSKNVVYLQMDNLKAEDSAVYYCTRDSYGYFPEYGFGVWGQGTLVTVSS VL: EVVLTQTPLSLSVTPGQPASISCRSSQSLVHSDGRTYLYWFLQKPGQPPQPLIYDISSRFSGVPYRFTGSGSGTYFTLRISRVEADDVGVYYCMHSIQLPRAFGQGTKVEIK	≥ 25 µg/ml	≥ 25 µg/ml	–	–
COV_1012 (antibody, V domains shown, human IgG1) VH: QVQLQESGPGLVRPSGTLSLTCAVSGGSISSSNWWSWVRQPPGKGLEWIGEIYRSGSTNYNPSLKSRVTISVAQSKNQFSLNLTSVTAADTAVYYCAKIIVGAPSDAFDIWGQGTMVTVSS VL: not shown	≥ 25 µg/ml	≥ 25 µg/ml	–	no binding
